Experimental data published in patent US5925540A, “Synthetic antifreeze peptide and synthetic gene coding for its production” (Virginia Tech Intellectual Properties, Inc., priority 1991, dated 1999).

System: JM109(DE3)
Assay: Studies of cell viability in JM109(DE3) strains bearing pX28 or pX284 after IPTG induction
Assay type: cell-based, E.coli
Settings: WF8R expressed as P10 fusion protein from pX28 / pX284; effects more pronounced in the pX28 harboring strain
Source text: The pX28 and pX284 were transformed into JM109(DE3). The proteins produced in either the JM109(DE3)[pX28] or in the JM109(DE3)[pX284] after induction by IPTG in mid- or late-logarithmic growth phase, have been analyzed by sodium dodecyl sulfate (SDS)-polyacrylamide gel electrophoresis (SDS-PAGE). […] Studies of cell viability in these strains have shown that both strains are adversely affected with respect to growth and stability of the plasmid (these effects were more pronounced in the pX28 harboring strain). […] To avert this problem the applicants decided to protect the fusion protein from intracellular degradation, as well as to protect the cells from the toxicity of WF8R, by adding to the fusion a C-terminal end derived from E.coli β-galactosidase.

B1: WF8R: synthetic antifreeze peptide of 98 amino acids with eight eleven-amino-acid repeats, modeled on winter flounder AFP, expressed in E. coli (protein)
chain: MSTASDAAAAAAATAATAAAAAAATAATAAAAAAATAATAAAAAAATAATAAAAAAATAATAAAAAAATAATAAKAAALTAANAAAAAAATAAAAARG
toxicity to the host cells (growth and stability of the plasmid adversely affected): toxic to the cells
